In PMC2225448 (Structure(London, England:1993), 2007):

Target: Human SOCS4 (amino acids 274-437) (human, UniProt Q8WXH5 274-437)
Assay: crystal structure; ternary complex coexpressed and purified; crystals at 4°C from 10% PEG6000, 2M NaCl; molecular replacement, refined to 2.5 Å
Conditions: both partners purified

Sequence of Human SOCS4 (amino acids 274-437) (Q8WXH5 274-437): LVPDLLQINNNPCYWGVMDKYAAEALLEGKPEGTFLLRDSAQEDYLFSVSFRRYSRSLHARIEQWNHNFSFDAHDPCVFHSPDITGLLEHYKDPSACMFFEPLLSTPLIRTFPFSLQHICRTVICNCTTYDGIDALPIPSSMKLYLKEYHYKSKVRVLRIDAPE

binding result: binds
B1: ElonginB (natural protein, human)
chain: MDVFLMIRRHKTTIFTDAKESSTVFELKRIVEGILKRPPDEQRLYKDDQLLDDGKTLGECGFTSQTARPQAPATVGLAFRADDTFEALCIEPFSSPPELPDVMKPQDSGSSANEQAVQ
